Data published in US12121554B2 (priority 2018, dated 2024).

How the values were obtained:
[1] = tested on: CD19-specific CAR T cells; assay type: cell-based; conditions: recombinant murine IFNβ in IL2
Description: FIGS. 8A-8D. CD19 CAR T cells treated with IFNβ in vitro. EGFRvIII-specific CAR T cells (with the scFv 139) and CD19-specific CAR T cells (with the scFv FMC63) were cultured in IL2 in the absence or presence of recombinant murine IFNβ, and CAR expression on the surface was measured using Biotin-Protein L and recognized with streptavidin-PE (Protein L+SA PE). Representative staining is shown in FIG. 8A, and the mean of three technical replicates was quantified in FIG. 8B. FIG. 8C: Representative expression of the activation markers CD25 and CD69 were shown for CAR T cells cultured as in FIG. 8A. FIG. 8D: Inhibitory receptor expression (PD1, LAG3, and TIM3) was quantified on CD8 CAR T or UTD cells cultured as in FIG. 8A. Average expression of three technical replicates is shown.

[2] = tested on: CD8 CAR T cells; assay type: cell-based, murine

B1: recombinant IFNβ: recombinant murine interferon β added to CAR T cell cultures (protein, UniProt P01575 22-182, looked up)
Interferon beta: INYKQLQLQERTNIRKCQELLEQLNGKINLTYRADFKIPMEMTEKMQKSYTAFAIQEMLQNVFLVFRNNFSSTGWNETIVVRLLDELHQQTVFLKTVLEEKQEERLTWEMSSTALHLKSYYWRVQRYLKLMKYNSYAWMVVRAEIFRNFLIIRRLTRNFQN
[1]
  CAR expression on the surface of CD19-specific CAR T cells: promoted higher expression levels of the CAR molecule
  activation phenotype (CD25, CD69) of CD19-specific CAR T cells: supported an activated phenotype
  inhibitory receptor expression of CD19-specific CAR T cells over untransduced cells: not associated with increased levels of inhibitory receptor expression
[2]
  CAR expression on the surface of transduced CD8 T cells: dose-dependent increase was observed in CAR expression
  expression of the exhaustion markers Lag3, PD1, and Tim 3: dose dependent increase in expression of the exhaustion markers Lag3, PD1, and Tim 3
  proportion of AnnexinV positive apoptotic cells: dose-dependent increase in the proportion of AnnexinV positive apoptotic cells
  proportion of triple positive cells (Lag3, PD1, Tim3): dramatically increased by IFNβ between 0 and 1 ng/mL, and plateaued at higher doses
